Results as given in patent publication US20110039801A1.

Molecular target: human NK1 receptor (transiently expressed in HEK293 cells) (human) (UniProt P25103)
Experiment: cell-based or functional assay

UniProt P25103, sequence (P25103 whole entry): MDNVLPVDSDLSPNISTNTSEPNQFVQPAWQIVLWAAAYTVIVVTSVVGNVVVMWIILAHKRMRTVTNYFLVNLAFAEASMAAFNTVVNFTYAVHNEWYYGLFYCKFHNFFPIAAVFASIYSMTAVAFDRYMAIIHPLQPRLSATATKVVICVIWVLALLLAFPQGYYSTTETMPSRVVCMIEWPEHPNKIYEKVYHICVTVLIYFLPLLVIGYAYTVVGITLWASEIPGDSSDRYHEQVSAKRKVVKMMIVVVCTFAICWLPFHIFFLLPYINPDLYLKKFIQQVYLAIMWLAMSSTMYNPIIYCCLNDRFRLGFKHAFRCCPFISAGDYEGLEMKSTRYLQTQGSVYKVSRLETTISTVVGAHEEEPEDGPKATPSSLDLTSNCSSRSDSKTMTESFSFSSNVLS

- NK1 receptor antagonistic activity (calcium imaging, inhibition of the substance P (100 µM) induced rise in fluorescence): 65%
Sequence: SPANTIDE II (peptidic analog of substance P) (peptide)
